According to patent US11802878B2, “Protein sequencing method and reagents” (The Governing Council of the University of Toronto, priority 2009, dated 2023):

What was measured:
[1] = tested on: immobilized biotinylated peptide, N-terminal amino acid A (X-SDGMFTAGSLIGK(biotin)); test: Phage ELISA, binding to immobilized peptide, N-terminal A
Procedure: (§1) Given the discovery that the specificity pocket library was functionally robust, selections against synthetic peptide ligands were carried out using this library. The specificity pocket library was selected against 20 biotinylated peptides, each with a different N-terminal residue atop a common leader sequence (X-SDGMFTAGSLIGK(biotin)) (SEQ ID NO: 4). The peptides were immobilized individually to the bottom wells of a microtiter plate. […] Consequently, ClpS mutant variants that prefer other residues in addition to the ligand ‘bait’ would bind those competing peptides in solution and simply be washed away. Only selective variants that bound to the immobilized target(s) were amplified during each subsequent round of selection.
(§2) To evaluate the specificity and selectivity of individual clones, both wild-type ClpS and the selected variants' binding to each of the biotinylated peptides independently were tested. The same approach was also used to monitor the progress of the selections and to prioritize particular pools of phage for further investigation.
(§3) Promising single clones were picked from the selection pools and their specificity was evaluated using the same panel of biotinylated peptides and various amounts of phage supernatant. […] Accordingly, Variant 1 represents a selective N-terminal amino acid capture probe for tryptophan useful for the sequencing methods described herein. Variant 1 also represents a useful scaffold for performing further generation and selection of variants with desirable properties for use as additional N-terminal amino acid capture probes.
(§4) The selection and ELISA protocols are very similar. Briefly, each well of a 96-well Maxisorp plate was coated overnight at 4° C. with 100 μl of 10 μg/ml neutravidin in PBS, or 1:500 dilution of anti-FLAG antibody. […]
(§5) For the ELISA readouts, 100 μl of pH adjusted phage supernatant or polyethylene glycol (PEG) precipitated concentrated phage was added to appropriate wells and allowed to bind for 1 hour at 4° C. […] The reaction was stopped by addition of 90 μl of 1M H3PO4 and the absorbance at A450 nm was read.

[2] = tested on: immobilized biotinylated peptide, N-terminal amino acid E (X-SDGMFTAGSLIGK(biotin)); test: Phage ELISA, binding to immobilized peptide, N-terminal E
Procedure: as §1, §2, §3, §4, §5

[3] = tested on: immobilized biotinylated peptide, N-terminal amino acid G (X-SDGMFTAGSLIGK(biotin)); test: Phage ELISA, binding to immobilized peptide, N-terminal G
Procedure: as §1, §2, §3, §4, §5

[4] = tested on: immobilized biotinylated peptide, N-terminal amino acid H (X-SDGMFTAGSLIGK(biotin)); test: Phage ELISA, binding to immobilized peptide, N-terminal H
Procedure: as §1, §2, §3, §4, §5

[5] = tested on: immobilized biotinylated peptide, N-terminal amino acid I (X-SDGMFTAGSLIGK(biotin)); test: Phage ELISA, binding to immobilized peptide, N-terminal I
Procedure: as §1, §2, §3, §4, §5

[6] = tested on: immobilized biotinylated peptide, N-terminal amino acid K (X-SDGMFTAGSLIGK(biotin)); test: Phage ELISA, binding to immobilized peptide, N-terminal K
Procedure: as §1, §2, §3, §4, §5

[7] = tested on: immobilized biotinylated peptide, N-terminal amino acid N (X-SDGMFTAGSLIGK(biotin)); test: Phage ELISA, binding to immobilized peptide, N-terminal N
Procedure: as §1, §2, §3, §4, §5

[8] = tested on: immobilized biotinylated peptide, N-terminal amino acid P (X-SDGMFTAGSLIGK(biotin)); test: Phage ELISA, binding to immobilized peptide, N-terminal P
Procedure: as §1, §2, §3, §4, §5

[9] = tested on: immobilized biotinylated peptide, N-terminal amino acid Q (X-SDGMFTAGSLIGK(biotin)); test: Phage ELISA, binding to immobilized peptide, N-terminal Q
Procedure: as §1, §2, §3, §4, §5

[10] = tested on: immobilized biotinylated peptide, N-terminal amino acid R (X-SDGMFTAGSLIGK(biotin)); test: Phage ELISA, binding to immobilized peptide, N-terminal R
Procedure: as §1, §2, §3, §4, §5

[11] = tested on: immobilized biotinylated peptide, N-terminal amino acid S (X-SDGMFTAGSLIGK(biotin)); test: Phage ELISA, binding to immobilized peptide, N-terminal S
Procedure: as §1, §2, §3, §4, §5

[12] = tested on: immobilized biotinylated peptide, N-terminal amino acid T (X-SDGMFTAGSLIGK(biotin)); test: Phage ELISA, binding to immobilized peptide, N-terminal T
Procedure: as §1, §2, §3, §4, §5

[13] = tested on: immobilized biotinylated peptide, N-terminal amino acid V (X-SDGMFTAGSLIGK(biotin)); test: Phage ELISA, binding to immobilized peptide, N-terminal V
Procedure: as §1, §2, §3, §4, §5

[14] = tested on: immobilized biotinylated peptide, N-terminal amino acid W (X-SDGMFTAGSLIGK(biotin)); test: Phage ELISA, binding to immobilized peptide, N-terminal W
Procedure: as §1, §2, §3, §4, §5

[15] = tested on: immobilized biotinylated peptide, N-terminal amino acid Y (X-SDGMFTAGSLIGK(biotin)); test: Phage ELISA, binding to immobilized peptide, N-terminal Y
Procedure: as §1, §2, §3, §4, §5

[16] = tested on: panel of 20 biotinylated peptides, each with a different N-terminal residue (X-SDGMFTAGSLIGK(biotin)); test: Phage ELISA specificity profile over the panel of biotinylated peptides; assay type: binding; settings: phage displayed; result in words
Procedure: as §1
To evaluate the specificity and selectivity of individual clones, both wild-type ClpS and the selected variants' binding to each of the biotinylated peptides independently were tested. […]
Promising single clones were picked from the selection pools and their specificity was evaluated using the same panel of biotinylated peptides and various amounts of phage supernatant. […]
as §5

B1: ClpS WT: truncated wildtype E. coli ClpS polypeptide, 84 amino acids, SEQ ID NO: 1, displayed on phage (protein, listed as Escherichia coli)
chain: KPPSMYKVILVNDDYTPMEFVIDVLQKFFSYDVERATQLMLAVHYQGKAICGVFTAEVAETKVAMVNKYARENEHPLLCTLEKA
modifications: phage display
phage ELISA binding signal ([1]; N-terminal A, phage 10X, sub Fab): −0.29 | phage ELISA binding signal ([1]; N-terminal amino acid A, Table 1): −0.29 | phage ELISA binding signal ([2]; N-terminal E, phage 10X, sub Fab): −0.26 | phage ELISA binding signal ([2]; N-terminal amino acid E, Table 1): −0.26 | phage ELISA binding signal ([3]; N-terminal G, phage 10X, sub Fab): −0.04 | phage ELISA binding signal ([3]; N-terminal amino acid G, Table 1): −0.04 | phage ELISA binding signal ([4]; N-terminal H, phage 10X, sub Fab): −0.03 | phage ELISA binding signal ([4]; N-terminal amino acid H, Table 1): −0.03 | phage ELISA binding signal ([5]; N-terminal I, phage 10X, sub Fab): −0.16 | phage ELISA binding signal ([5]; N-terminal amino acid I, Table 1): −0.016 | phage ELISA binding signal ([6]; N-terminal K, phage 10X, sub Fab): 0.05 | phage ELISA binding signal ([6]; N-terminal amino acid K, Table 1): 0.05 | phage ELISA binding signal ([7]; N-terminal N, phage 10X, sub Fab): −0.05 | phage ELISA binding signal ([7]; N-terminal amino acid N, Table 1): −0.05 | phage ELISA binding signal ([8]; N-terminal P, phage 10X, sub Fab): −0.07 | phage ELISA binding signal ([8]; N-terminal amino acid P, Table 1): −0.07 | phage ELISA binding signal ([9]; N-terminal Q, phage 10X, sub Fab): −0.18 | phage ELISA binding signal ([9]; N-terminal amino acid Q, Table 1): −0.18 | phage ELISA binding signal ([10]; N-terminal R, phage 10X, sub Fab): 0.13 | phage ELISA binding signal ([10]; N-terminal amino acid R, Table 1): 0.13 | phage ELISA binding signal ([11]; N-terminal S, phage 10X, sub Fab): −0.01 | phage ELISA binding signal ([11]; N-terminal amino acid S, Table 1): −0.01 | phage ELISA binding signal ([12]; N-terminal T, phage 10X, sub Fab): 0.01 | phage ELISA binding signal ([12]; N-terminal amino acid T, Table 1): 0.01 | phage ELISA binding signal ([13]; N-terminal V, phage 10X, sub Fab): −0.09 | phage ELISA binding signal ([13]; N-terminal amino acid V, Table 1): −0.09 | phage ELISA binding signal ([14]; N-terminal W, phage 10X, sub Fab): 0.77 | phage ELISA binding signal ([14]; N-terminal amino acid W, Table 1): 0.77 | phage ELISA binding signal ([15]; N-terminal Y, phage 10X, sub Fab): 1.08 | phage ELISA binding signal ([15]; N-terminal amino acid Y, Table 1): 1.08 | binding specificity / preference for N-terminal amino acids [16]: clear preference for Leu, Tyr, Phe and, more weakly, Trp peptides
